The nanobody polyreactivity screen of Harvey et al. (2022)

Assay: yeast display, Sf9 membrane polyspecificity reagent, FACS + sequencing; frameworks hold sequencing errors
How it was run: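 Galactose induction of a Saccharomyces cerevisiae BJ5465 synthetic nanobody display library ran 36–48 hours. The cells were then stained for 1 hour at 4 °C with 10% biotinylated, detergent-solubilized Sf9 membrane reagent, pulled down on streptavidin microbeads and FACS-sorted into low and high (top ~1%) gates on expression and reagent-binding fluorescence. Labels for polyreactivity follow the gate of origin.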

Sequence | polyreactivity (PSR sort gate)
QVQLVESGGGLVQAGGSLRLSCAASGSTLNSYVMGWYRQAPGKERELVATIRSGSSTNYADSVKGRFTISLDNAKNTVYLQMNSLKPVDTAVYYCSRDDRLAGDYWGQGTQVTVSS | low polyreactivity
QVQLVESGGGLVQAGGSLRLSCPASGSIFDVYTMGWYRQAPGKEMELVAAINTGGGSTYYADSVKGRFTISRDTAKNTVYLQMYSMKPEDTAVYSCAKEVSPYWTFDYWGQGTQVTVSS | low polyreactivity
QVQLVESGAGLVQAGGSLRLSCAASGRTFKTYAMAWYRQAPGKERELVAAISRDGRTYYADSVKGRFTISRDNAKNTVYLQMNSLKPEDTAVYYCAKDASVWPWWGYRGDYWGQGTQVTVSS | low polyreactivity
QVQLVESGGGLVQAGGRLRFTCAASGAIFHNYDMGGYRQATGKERQLVADISRGGDTNYADSVKGRFTISRDNAKNTVYLEMNSMKPEDTAVYYCNATYWILDSPWWRETFDYWGQGSQVTVSS | low polyreactivity
QVQLVESGGGLVQAGGSLRLSCAASGSIFTFYAMGWYRQAPGKERELVAAISYGGGITYYADSVKGRFTISRDNAKISVYLQMNSLIPEDSAVYYCAADDGYYNLYFDYDFWGQGTQLTVSS | low polyreactivity
QVQLVESGGGLVQAGGSLRLSCAASGIIFDDYAMGWYRQAPGKERELVAAINSNGGTTYYADSVKGRFTISRDNAKNTVYLHMNSLKPEDTAVYYCAKAYPGTYREYDYWGQGTQVTVSS | high polyreactivity
QVQLVESGGGLVQAGGSLRLSCAASGFTFRAYAMGWYRQAPGKERELVATITRSGGSTFYADSVKGRFTISRDNAKNTVYLQMNSLKPEDTAVYYCAAVYRFPCRYAWYKYDDWGQGTQVTVSS | high polyreactivity
QVQLVESGGGLVQAGGRLRLSGAASGLIFTTYAMGWSRQAPGKVRELVAAISSSGDSTYYADSVKGRFTISRDNAKNTVYLQMNSLKPEDTAVYYRAARYYYRGYEFGYWGQGTQVTVSS | high polyreactivity
QVQLVESGGGLVQAGGSLRLSCAASGFIFDNNAMGWYRQAPGKEREFVAAISGSGGSTYYADSVKGRFTISRDNAKNTVYLQMNSLKPEDTAVYYCAAPIPDYTYIYPAYDDYWGQGTQVTVSS | low polyreactivity
QVQLVESGGGLVQAGGSLRLSCAASGSTLPGNVMGWYRQAPGKERELVAAISKRGASTYYADSVKGRFTISRDNAKYTVYLLMNSLKPEDTAVYYCATRTRGSVFRFDYWGQGTQVTVSS | high polyreactivity
QVQLVESGGGLVQAGGSLRLSCAASGITIVLYAMGWYRQAPGKERELVAAINIDGNTNYADSVKGRFTISRDNAKNTVYLQMNSLKPEDTAVYYCATYYYYPSWYLLYGEYNYWGQGTQVTVSS | low polyreactivity
QVQLVESGGGLVQAGGSLRLSCAASGSTLRWNTMGWYRQAPGKERQLVARISKSGGSTSYADSVKGRLTISRDNAKNTVYLQMNSLKPEDTAVYYCAKTPSQGYVFSYRWGDYWGQGTQVTVSS | high polyreactivity
QVQLVESGGGLVQAGGSRRLSCAASGRTFYYAMGWYRQAPGKETQLVATITSGGGSTYYADSVKGRFSISRDNAKNTVYLQMNSLKPEDTAVYYCAADYKSSPPLPEYDYWGQGTQVTVSS | high polyreactivity
QVQLVESGGGLVQAGCSLRLSCASSGLTFSFYAMGWYRQAPGKERELVAAISKGGGSTSYADSVKGRFTISRDNAKNTVYLQMNSLKPEDTAVYYCAARYYYSRSRLYYYWGQVTQVTVSS | high polyreactivity
QVQLVESAGGLVQAGGSLRLSCSASGLTFVPNAMGWYRQAPGKERELVATISSSGGRTTYADSVKGRFTISRDKAKNTVYLQMNSLKPEDTAVYYCADQGYWTGYDYWGQGTQVTVSS | high polyreactivity
QVQLVESGGGLVQAGGSLRLSCAASGSTFEYNAKGWYRQAPGKERELVASSTNYADSVKGRFTISRDNAKNTVYFQMNSLKPEDTAVYYCAARSLRYPYDYWGQGTQVTVSS | low polyreactivity
QVQLVESGGGLVQAGGSLRLSCAASGRTFKYYTMGWYRQAPGKERELVAAITGSGGSTYYADSVKGRFTISRDNAKNTVYLQMNSLKPEDTAVYYCAAYRTFSREYYYWGQGTQVTVSS | high polyreactivity
